In patent US20230272023A1 (HUMAN CELL, published 2023):

Legend:
[1] = target: T1, human TrkA on TF1 erythroleukemic cells (human, UniProt P04629 33-796); test: cell-based or functional assay
[2] = target: T1, human TrkA on TF1 erythroleukemic cells; test: cell-based or functional assay; remark: listed apart in the source
[3] = target: T2, p75^NTR receptor immobilized on the Biacore chip (UniProt P08138 29-250); test: SPR, Biacore 3000, 25 C, receptor amine-coupled on chip, NGF mutein as analyte
T2 sequence (looked up): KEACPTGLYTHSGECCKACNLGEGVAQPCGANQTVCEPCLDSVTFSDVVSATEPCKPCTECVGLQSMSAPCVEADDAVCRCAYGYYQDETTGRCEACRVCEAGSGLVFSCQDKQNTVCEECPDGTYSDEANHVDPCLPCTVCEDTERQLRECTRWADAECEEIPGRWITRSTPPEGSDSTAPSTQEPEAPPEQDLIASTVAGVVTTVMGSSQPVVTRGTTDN
Protocol: (§1) The binding experiments were performed on Biacore 3000 at 25° C. Receptors were directly immobilized by direct immobilization using EDC/NHS amine coupling kit and GE protocol. The receptor was coated until the desired RU. The unoccupied active sites on the chip were quenching by flowing 1 M ethanol amine. […] Data were analyzed using Biacore 3000 bia evaluation software (Biacore) using the values after reference subtraction. KD was determined by applying either local (for scouting) or global (full kinetics) 1:1 Langmuir fitting model. Full kinetics was performed with the range of analyte at a 2-fold serial dilution and flowed over the ligand from lowest to highest concentration range.

[4] = target: T3, TrkA receptor immobilized on the Biacore chip (UniProt P04629 33-423, limits assumed); test: SPR, Biacore 3000; ratio of the affinity for TrkA over that for p75^NTR
Protocol: as §1

[5] = target: T3, TrkA receptor immobilized on the …; test: SPR, Biacore 3000, 25 C, receptor amine-coupled on chip, NGF mutein as analyte, 1:1 Langmuir
Protocol: as §1

[6] = target: T2, p75^NTR receptor immobilized on the …; test: SPR, Biacore 3000; Table 4 column Binding affinity (nM), P75^NTR
Protocol: as §1

[7] = target: T3, TrkA receptor immobilized on the …; test: SPR, Biacore 3000; against NGF wt
Protocol: as §1

[8] = target: T2, p75^NTR receptor immobilized on the …; test: SPR, Biacore 3000; against NGF wt
Protocol: as §1

[9] = target: T1, human TrkA on TF1 erythroleukemic cells; test: cell-based or functional assay; remark: listed apart in the source
[10] = target: T3, TrkA receptor immobilized on the …; test: SPR, Biacore 3000; Table 4 column Binding affinity (nM), TrkA receptor
Protocol: as §1

T1 sequence (P04629 33-796): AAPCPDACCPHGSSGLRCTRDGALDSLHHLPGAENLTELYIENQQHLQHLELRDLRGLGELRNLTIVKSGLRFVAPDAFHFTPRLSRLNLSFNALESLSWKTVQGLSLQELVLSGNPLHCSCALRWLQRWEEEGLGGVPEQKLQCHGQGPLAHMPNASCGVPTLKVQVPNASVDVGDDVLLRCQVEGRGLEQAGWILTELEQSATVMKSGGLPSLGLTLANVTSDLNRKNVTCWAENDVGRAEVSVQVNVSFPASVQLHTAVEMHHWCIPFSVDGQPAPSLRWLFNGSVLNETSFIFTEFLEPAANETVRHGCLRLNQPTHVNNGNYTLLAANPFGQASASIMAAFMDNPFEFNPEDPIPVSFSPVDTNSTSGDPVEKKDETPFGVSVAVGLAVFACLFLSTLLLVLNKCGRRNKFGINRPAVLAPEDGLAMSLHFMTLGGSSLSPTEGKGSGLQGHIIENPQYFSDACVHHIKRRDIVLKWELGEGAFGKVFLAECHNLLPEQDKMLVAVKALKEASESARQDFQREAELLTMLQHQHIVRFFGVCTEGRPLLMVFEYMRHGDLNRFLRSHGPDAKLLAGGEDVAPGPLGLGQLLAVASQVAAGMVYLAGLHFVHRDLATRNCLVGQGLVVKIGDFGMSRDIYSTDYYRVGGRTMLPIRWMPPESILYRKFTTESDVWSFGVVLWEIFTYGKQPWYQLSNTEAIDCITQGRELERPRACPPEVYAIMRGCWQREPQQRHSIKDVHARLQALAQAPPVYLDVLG
T3 sequence (P04629 33-423 limits assumed): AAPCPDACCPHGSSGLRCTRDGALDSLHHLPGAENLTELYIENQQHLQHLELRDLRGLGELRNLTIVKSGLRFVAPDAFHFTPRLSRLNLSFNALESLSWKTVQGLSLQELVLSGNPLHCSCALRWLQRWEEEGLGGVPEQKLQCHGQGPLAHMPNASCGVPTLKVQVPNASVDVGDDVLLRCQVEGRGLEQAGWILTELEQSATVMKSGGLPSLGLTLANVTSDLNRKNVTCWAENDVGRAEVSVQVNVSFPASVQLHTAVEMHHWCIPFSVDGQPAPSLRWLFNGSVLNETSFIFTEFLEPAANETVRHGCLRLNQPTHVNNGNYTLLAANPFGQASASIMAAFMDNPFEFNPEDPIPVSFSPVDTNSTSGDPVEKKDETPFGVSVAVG

B1: NGF K34A/R69A (ligand)
chain: SSSHPIFHRGEFSVCDSVSVWVGDKTTATDIKGAEVMVLGEVNINNSVFKQYFFETKCRDPNPVDSGCAGIDSKHWNSYCTTTHTFVKALTMDGKQAAWRFIRIDTACVCVLSRKAVRRA
- EC50 in TF-1 proliferation assay, protein kept 7 days at 4° C. [1]: 9.13 ng/mL

B2: NGF K34D/R69A (ligand)
chain: SSSHPIFHRGEFSVCDSVSVWVGDKTTATDIKGDEVMVLGEVNINNSVFKQYFFETKCRDPNPVDSGCAGIDSKHWNSYCTTTHTFVKALTMDGKQAAWRFIRIDTACVCVLSRKAVRRA
- EC50 in TF-1 proliferation assay, protein kept 7 days at 4° C. [1]: 12.3 ng/mL

B3: NGF K34D/K32A (ligand)
chain: SSSHPIFHRGEFSVCDSVSVWVGDKTTATDIAGDEVMVLGEVNINNSVFKQYFFETKCRDPNPVDSGCRGIDSKHWNSYCTTTHTFVKALTMDGKQAAWRFIRIDTACVCVLSRKAVRRA
- EC50 in TF-1 proliferation assay, 4° C. [2]: 1.91 ng/mL
- EC50 in TF-1 proliferation assay, after storage at 55° C. [2]: 9.7 ng/mL

B4: NGF K34A/R69A/R100E (ligand)
chain: SSSHPIFHRGEFSVCDSVSVWVGDKTTATDIKGAEVMVLGEVNINNSVFKQYFFETKCRDPNPVDSGCAGIDSKHWNSYCTTTHTFVKALTMDGKQAAWEFIRIDTACVCVLSRKAVRRA
- EC50 in TF-1 proliferation assay, protein kept 7 days at 4° C. [1]: 689 ng/mL

B5: NGF K34D/R69A/R100D (ligand)
chain: SSSHPIFHRGEFSVCDSVSVWVGDKTTATDIKGDEVMVLGEVNINNSVFKQYFFETKCRDPNPVDSGCAGIDSKHWNSYCTTTHTFVKALTMDGKQAAWDFIRIDTACVCVLSRKAVRRA
- EC50 in TF-1 proliferation assay, protein kept 7 days at 4° C. [1]: 23 ng/mL

B6: NGF K34D/R100E (ligand)
chain: SSSHPIFHRGEFSVCDSVSVWVGDKTTATDIKGDEVMVLGEVNINNSVFKQYFFETKCRDPNPVDSGCRGIDSKHWNSYCTTTHTFVKALTMDGKQAAWEFIRIDTACVCVLSRKAVRRA
- EC50 in TF-1 proliferation assay, protein kept 7 days at 4° C. [1]: 58.8 ng/mL

B7: NGF K34D/K32D (ligand)
chain: SSSHPIFHRGEFSVCDSVSVWVGDKTTATDIDGDEVMVLGEVNINNSVFKQYFFETKCRDPNPVDSGCRGIDSKHWNSYCTTTHTFVKALTMDGKQAAWRFIRIDTACVCVLSRKAVRRA
notes: Double mutein of mature human NGF; expressed in HEK293 cells; also called NGF34D/K32D; NGF34D/32 D
- Kd [3]: > 200 nM
- Binding selectivity (TrkA/p75^NTR) [4]: > 328 fold
- Kd [5]: 0.607 nM
- koff [5]: 0.00398 s⁻¹
- kon [5]: 6.54e+06 M⁻¹ s⁻¹
- EC50 in TF-1 proliferation assay, 4° C. [2]: 2.62 ng/mL
- EC50 in TF-1 proliferation assay, after storage at 55° C. [2]: 1.15 ng/mL
- Kd [6]: > 200 nM
- binding affinity, % of wildtype [7]: 5.9 % of wildtype
- fold reduction of binding affinity against wildtype [7]: 18 fold
- fold reduction of binding affinity against wildtype [8]: 625 fold
- TrkA receptor Bio-activity [9]: 2.62 ng/mL
- Kd [10]: 0.61 nM
